A short description of this series: label from the status in PepcDB records.

As to “MTRPYSLTRYAWLSIFVAIFTMAVKAAAYRVTGSVGLLSDALESIVNLSAAVVALAMLRLSAQPADARHHFGHGKAEYFASGFEGVLILVAAGAILFAAWDRYLHPHELAELDLGLGLSVAAAVVNGLVGWLLVSVGRKAGSIVLEADGKHLLTDVWTSIGVVCGVAAAGLTGWHDFDPGVAALVGLNIVWTGAGLIRRTIAGLLDASLPLEENLKIRGILETFRERGVGFHDLRTRQSGAHRFMSVHLLVPGAWTVQAAHDLAEEIEAELGGALANLTVVTHIEPIEDPASFGHHEPFPETAPEVTNPHPPQTARPLRLKIASVAGAALLLGGGVAGVVVSGVWLDLALAAVLFGFVLILAVQRRGGRQRKAGRQ”, the protein production entry is listed as “failed”.

Regarding “MTRQRNREGLEFTAANAQAVEAFDETVKRYLQFHGDIGGALKATFAHDAQMPMALILRGYFYLLMGLRPLADKAAQLAAGLQPGRAALTEREQRHLDALACWSRDSLQAATEHWERIARAHPRDILAVKMAHFGYFYLGRSARIRDGIAQAIDSWSEDDALYPYMLSMMAFGQVEAGELARGEASGRRALELTPHDPWAVHAVAHALEPTDRKADALAWIARHERHWSEANNFRHHIHWHRALIHLEQGDAQAALDWYDRTVFAADSVEYLDVCNEASLLMRLELSGVDVGRRWEAVAQKSAARIDDQVMGFADVHYAMALCSSANPEHRQQAQALAERLERYSQGGTDNAQAYRQAVVPIVGALLAFRQGRYRESADALLACADVAHAAGGSHDQRDVYEYLTAEALFRAAPAHPDTIAYLARRSFRAPHNPHNWRLYLQSLEQSGQDRTLAAATARRQAAAHATA”, the protein production entry is “failed”.

Consider “MTRSANPSLFLPLRAAWLALMRFQAKSGFVMSSHVAMSMMMALFPFILFTVALAGSLSQDLVTDDLIQLIFGTWPEQVATPIVAELKAVLAGANSRVMTVGGVLAVYFASNGVDAVREAMSRAYHDAETRPFWKTRLLCIAIVVGGGAIVLAVAAFEVVMPIYTRLVTDALPGAAPDWLSVERLSWIFVVAMPAGAVLACHALLPAGRHPLRRILPGVVLTLVLWAGCGWGFSLYIANFASYSTTYAGLAGAMAALIFLYLNAAILILGAEFNGALMDLSGGPD”, for which the protein production result is recorded as “not failed”.

For the sequence “MTRSEAQGRLTGLAPVSVIDIGSNSVRLVVYEGLSRAPAVLFNEKVLCGLGKGLALTGRMHEEGVTRALMALRRFHVLSEQAQAQKLYVLATAAAREAENGPDFIREAEAILGCEIEVLSGEKEALYSAYGVISGFYQPDGIAGDLGGGSLELIDIKDKSCGEGITLPLGGLRLSEQSDGSLEKAATIARKHVKSFAKLLAAGEGRTFYAVGGTWRNIAKLHMEISGYPLHMMQGYELPLEEMLNFLEEVIVSRDSKDPAWQAVSKNRRSLLPFGAIAMREVLRAMKPAKIAFSAQGVREGYLYSLLTEAERESDPLLVAADELAILRARSPEHARELADWSGRTFPVFGIDETEEESRYRQAACLLADISWRAHPDYRGLQALNIIAHSSFVAITHPGRAYIALANYYRFEGLNDNGTTEPLAAMAGERLQELGKLLGGLLRVVYLFSASMPGVVDHLKFRKSDNPDIDLEFVVPHDYCDFAGERLDGRLQQLAKLTGKRLAFVFE”, the protein production entry was “not failed”.

As to “MTRSRRGALARSSEGGPFPTADPVADRALCGWRVRSVIDLPELPLWTRDDRLPDVTIAFGRVTPVESASPGMNWHVVGEGRFRFTVASVGSYRISRGRVITIDPQAGVVASAVRQYLLGTAFGVLCHQRGLLPLHASCVAINGRAVAIAGASGAGKSSLAAALVRLGYPLLGDDVCVIDASEINAPHVLPAIPRLKLWRDVLDTFGLIVDPAARILEGIDKYQAQALADRPPPPPPQVPLPLGVVYYLDQAESPDDEGFHAIRGAERAAALAGAVYRRKMGLAMGLLPQIFTATMTVGALVPGHRLLRHGDLSGLDALARSVAARQEGRGLEHHHHHH”, the protein production result is “failed”.

With “MTRTTGTRTTGILADGAIRALFAGDKLKSEADLDVDQVQPASLDLRLGSKAYRVRASFMPGPGTRVIDKLNRFSLHEVDLSQGAVLETGCVYIVPLMESLALPADMSASANPKSSTGRLDIFTRVMTDNAQEFDKIPAGYTGPLYLEISPRTFPIVVRRGSRLSQIRFRIGHALLNESEVLKLHETETLVASENPNVTGGGIALSIDLKGFGENGLIGYRGKHHTAVVDVDKKAQHDVLDFWEPLFARGRAELILDPDEFYILVSREAVHVPPLYAAEMTPFDPLVGEFRVHYAGFFDPGFGHAQAGGTGSRAVLEVRSHEVPFILEHGQIVGRLVYEHMLEKPEGLYGTGLGSNYQAQGLKLSKHFRAE”, the protein production entry is on record as “not failed”.

“MTRVKSKLDEELSSPWFYTVCTMGGMLSAGTTHLAITPLDVLKVNMQVNPVKYNSIPSGFSTLLREHGHSYLWRGWSGKLLGYGVQGGCRFGLYEYFKTLYSDVLPNHNRTSIYFLSSASAQIFADMALCPFEAIKVRVQTQPMFAKGLLDGFPRVYRSEGLAGFHRGLFPLWCRNLPFSMVMFSTFEQSVEFIYQKIIQKRKQDCSKAQQLGVTCLAGYTAGAVGTIISNPADVVLSSLYNNKAKNVLQAVRNIGFVGLFTRSLPVRITIVGPVITLQWFFYDAIKVLSGFPTSGGVKKPVDAAKLSV”: the protein production result is “failed”.

For the sequence “MTRVLYCGDTSLETAAGYLAGLMTSWQWEFDYIPSHVGLDVGELLAKQDLVILSDYPAERMTAQAIDQLVTMVKAGCGLVMLGGWESYHGLGGNWDQTLLAEVLPVDIKSADDRINFDQPTLAIPAAINSVSHPILQNLPWEDRPPTIGGLNRIAAKAKAQTLLMARVWRPTFSLEHGKTTWEHADHHPLLVVGEAGTGRVAAFASDVAPHWVGGLVDWGDERVTSQAPGAGAIEVGNLYSQFFRQMLEWVAKSTR”, the protein production result is listed as “not failed”.

Take “MTSAAQLTALLHLASPALPVGAFSYSQGLEAAVEARHVHDEASAARWIAEGLAVLAACEAPLWLLQYADWQAGRLDAVAERDGWFLATRETRELRLETAQMGWSLARLIAQMGWGAPAMRDALAARAAITFPTAFAAAAVALGIEARDGLTAYSFAWVENQVAAAVKAIPLGQAAGQRILFGLHAAVGQAAEDAARRAACHPPELSTFSPGLGVLSARHETQYSRLFRSLEHHHHHH”: the protein production entry is “failed”.

Turning to “MTSAQAVSEGTGEAAAQAISLRTWVAVLGSVVGCFMAGMNVHVTNASLPDVRGSLGATFEEGSWITTAYLVAEIIIIPMTGWLVSVFSMRRVLMVGTAGFVLFSIACSLAPNIHSLIFARVLQGAFGGVLIPLSFQLIVTELPAARHPMGMALFAVANNVAQAAGPSLGGWLTDAYSWRWIFYLQVPPGLLLLAAIGWSVRPQPMVLAKLRQGDWGGIASMAVGLSALQIMLEEGGRYDWFASSFISHCAILATVGLLAFVAIELRREQPLINLRLLGRYNFGIASLMQFTFGAVVFGVVFLVPNYFAQIHGYNARQIGLMMIPYGLIQFVMSFATPRLMRWTSARTIIIAGFAITGIGCLMNIHLNPDASVNVIVPSLVVRGIGQSLVVVALGVMAIQGLEKDQVGSASGLFSMVRNVGGAIGIALSSQIVVEREKLHAQRIGESVSLFAQATQERLVELVRLLAQAPVEYATALHSAALAPLRQQALGMVDKVLHRDALLLAYSDAFLLAGLAMLLCVVAGVLLRRA”, the protein production entry was “failed”.

Take “MTSDIKAILEQVVISPDVPIAEAIAQLDRAGTGSLVVCSADKKLYGLLTDGDVRRALLKAVDMGAPCGDIANRKPVITFVPLLPIEALRLMNHHDINHLPVLDAEGRVVDFLLRRDLVAEDELAARARRRLDSVVIPCSASIAEAIAQLDRAGTGALVLCSEGDRLHGLLTDGDIRRAVLRGISLDAPCQDVASRRPVTVEPSFSAAQALHLMNQHDINHLPVVDDTGRVVDFLLRRDLIADDQLNLSAVVMAGGYGKRLLPLTEQVPKPMLPVGDRPLLERTIDQLRRSGIREVNLTTHYLPDSIVEHFGDGDSFGVKLNYLKEDHPLGTAGGLKLMKKASDPFLVMNGDILTGVPFQEMFAYHRKNGAEITVGVRKYEVQVPFGVVECDDVRITGLKEKPSLTFFINAGIYLLEPSVCDLIPEGERFDMTDLIQKLLDEGRSVVSFPIMEYWLDVGRHEDYQKAQEDVRSGKIQLEHHHHHH”: the protein production result was “failed”.

These data come from a protein production outcome set (Wang et al. 2014).
